{"source": "patent US6613329", "key": {"[1]": {"molecular_target": "Crotalus durissus terrificus venom", "assay": "ELISA, venom-coated wells (5 µg/ml); 1:625"}, "[2]": {"molecular_target": "Crotalus durissus terrificus venom", "assay": "ELISA, venom-coated wells; 1:625"}, "[3]": {"molecular_target": "Crotalus durissus terrificus venom", "assay": "ELISA, venom-coated wells (5 µg/ml); 1:125"}, "[4]": {"molecular_target": "Crotalus durissus terrificus venom", "assay": "ELISA, venom-coated wells; 1:25"}, "[5]": {"molecular_target": "Crotalus durissus terrificus venom", "assay": "ELISA, venom-coated wells; 1:62,500"}, "[6]": {"molecular_target": "Crotalus durissus terrificus venom", "assay": "ELISA, venom-coated wells; 1:3125"}, "[7]": {"molecular_target": "Crotalus durissus terrificus venom", "assay": "ELISA, venom-coated wells (5 µg/ml); 1:3125"}, "[8]": {"molecular_target": "Crotalus durissus terrificus venom", "assay": "ELISA, venom-coated wells; 1:5"}, "[9]": {"molecular_target": "Crotalus durissus terrificus venom", "assay": "ELISA, venom-coated wells; 1:312,500"}, "[10]": {"molecular_target": "Crotalus durissus terrificus venom", "assay": "ELISA, venom-coated wells (5 µg/ml); undiluted"}, "[11]": {"molecular_target": "Crotalus durissus terrificus venom", "assay": "ELISA, venom-coated wells; 1:125"}, "[12]": {"molecular_target": "Crotalus durissus terrificus venom", "assay": "ELISA, venom-coated wells (5 µg/ml); 1:5"}, "[13]": {"molecular_target": "Crotalus durissus terrificus venom", "assay": "ELISA, venom-coated wells (5 µg/ml); 1:25"}}}
{"substance": "preimmune chicken IgY (PEG prep) (antibody)", "values": [{"measurement": "ELISA absorbance", "setting": "[1]", "result": 0, "unit": "absorbance"}, {"measurement": "ELISA absorbance", "setting": "[2]", "result": "< 0", "unit": "absorbance"}, {"measurement": "ELISA absorbance", "setting": "[3]", "result": 0.003, "unit": "absorbance"}, {"measurement": "ELISA absorbance", "setting": "[4]", "result": 0.016, "unit": "absorbance"}, {"measurement": "ELISA absorbance (absorbance (412 nm filter))", "setting": "[5]", "result": 0.001}, {"measurement": "ELISA absorbance", "setting": "[6]", "result": "< 0", "unit": "absorbance"}, {"measurement": "ELISA absorbance", "setting": "[7]", "result": 0.002, "unit": "absorbance"}, {"measurement": "ELISA absorbance", "setting": "[8]", "result": "< 0", "unit": "absorbance"}, {"measurement": "ELISA absorbance (absorbance (412 nm filter))", "setting": "[9]", "result": 0.01}, {"measurement": "ELISA absorbance", "setting": "[10]", "result": 0.003, "unit": "absorbance"}, {"measurement": "ELISA absorbance", "setting": "[11]", "result": "< 0", "unit": "absorbance"}, {"measurement": "ELISA absorbance", "setting": "[12]", "result": "< 0", "unit": "absorbance"}, {"measurement": "ELISA absorbance", "setting": "[13]", "result": 0, "unit": "absorbance"}]}
